Reference: the supplement of paper PMC10567573

B1: TSPAN10 (parent)
chain: EGCGPPLRRWLRANLAASGGYAIA

Variants of: B1
Assay: protein stability index of a GFP-peptide fusion (GPS, HEK-293T) (PSI 1-6); higher = more stable
Settings: c terminus: a fixed tail appended
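Also: lentivirally expressed fusions sorted by FACS into six bins by GFP to DsRed ratio, PSI derived from sequencing read proportions per bin multiplied by bin number.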

| Variant | protein stability index |
| --- | --- |
| EGCGPPLRRWLRANLAAIGGYAIA [S18I] | 1.44 |
| EGCGPPLRRWLRANLAAKGGYAIA [S18K] | 1.61 |
| EGCGPPLRRWLRANLAAEGGYAIA [S18E] | 1.75 |
| EGCGPPLRRWLRANLAAFGGYAIA [S18F] | 2.57 |
| EGCGPPLRRWLRANLAAAGGYAIA [S18A] | 1.97 |
| EGCGPPLRRWLRANLAALGGYAIA [S18L] | 2.19 |
| EGCGPPLRRWLRANLAAGGGYAIA [S18G] | 1.98 |
| EGCGPPLRRWLRANLAAHGGYAIA [S18H] | 1.87 |
| EGCGPPLRRWLRANLAACGGYAIA [S18C] | 2.15 |
| EGCGPPLRRWLRANLAADGGYAIA [S18D] | 2.71 |
| EGCGPPLRRWLRAGLAASGGYAIA [N14G] | 2.24 |
| EGCGPPLRRWLRATLAASGGYAIA [N14T] | 1.86 |
| EGCGPPLRRWLRAKLAASGGYAIA [N14K] | 2.81 |
| EGCGPPLRRWLRAILAASGGYAIA [N14I] | 1.05 |
| EGCGPPLRRWLRAELAASGGYAIA [N14E] | 1.47 |
| EGCGPPLRRWLRASLAASGGYAIA [N14S] | 1.93 |
| EGCGPPLRRWLRADLAASGGYAIA [N14D] | 1.86 |
| EGCGPPLRRWLRARLAASGGYAIA [N14R] | 1.74 |
| EGCGPPLRRWLRAMLAASGGYAIA [N14M] | 2.08 |
| EGCGPPLRRWLRAALAASGGYAIA [N14A] | 2.3 |
| EGCGPPLRRWLRALLAASGGYAIA [N14L] | 1.02 |
| EGCGPPLRRWLRAQLAASGGYAIA [N14Q] | 1.39 |
| EGCGPPLRRWLRAWLAASGGYAIA [N14W] | 1.83 |
| EGCGPPLRRWLRAYLAASGGYAIA [N14Y] | 1.46 |

| Variant | protein stability index |
| --- | --- |
| EGCGPPLRRWLRAPLAASGGYAIA [N14P] | 2.06 |
| EGCGPPLRRWLRAFLAASGGYAIA [N14F] | 1.92 |
| EGCGPPLRRWLRAHLAASGGYAIA [N14H] | 2.48 |
| EGCGPPLRRWLRANKAASGGYAIA [L15K] | 2.53 |
| EGCGPPLRRWLRANRAASGGYAIA [L15R] | 3.06 |
| EGCGPPLRRWLRANTAASGGYAIA [L15T] | 1.95 |
| EGCGPPLRRWLRANVAASGGYAIA [L15V] | 2.07 |
| EGCGPPLRRWLRANPAASGGYAIA [L15P] | 2.14 |
| EGCGPPLRRWLRANQAASGGYAIA [L15Q] | 3.2 |
| EGCGPPLRRWLRANNAASGGYAIA [L15N] | 2.28 |
| EGCGPPLRRWLRANCAASGGYAIA [L15C] | 1.49 |
| EGCGPPLRRWLRANIAASGGYAIA [L15I] | 1.93 |
| EGCGPPLRRWLRANSAASGGYAIA [L15S] | 2.94 |
| EGCGPPLRRWLRANHAASGGYAIA [L15H] | 2.62 |
| EGCGPPLRRWLRANDAASGGYAIA [L15D] | 2.81 |
| EGCGPPLRRWLRANYAASGGYAIA [L15Y] | 1.92 |
| EGCGPPLRRWLRANGAASGGYAIA [L15G] | 2.59 |
| EGCGPPLRRWLRANFAASGGYAIA [L15F] | 1.58 |
| EGCGPPLRRWLRANAAASGGYAIA [L15A] | 2.36 |
| EGCGPPLRRWLRANMAASGGYAIA [L15M] | 2.16 |
| EGCGPPLRRWLRANEAASGGYAIA [L15E] | 2.96 |
| EGCGPPLRRWLRNNLAASGGYAIA [A13N] | 2.19 |
| EGCGPPLRRWLRYNLAASGGYAIA [A13Y] | 1.66 |
| EGCGPPLRRWLRPNLAASGGYAIA [A13P] | 2.87 |

| Variant | protein stability index |
| --- | --- |
| EGCGPPLRRWLRQNLAASGGYAIA [A13Q] | 2.83 |
| EGCGPPLRRWLRRNLAASGGYAIA [A13R] | 1.62 |
| EGCGPPLRRWLRTNLAASGGYAIA [A13T] | 2.25 |
| EGCGPPLRRWLRKNLAASGGYAIA [A13K] | 2.95 |
| EGCGPPLRRWLRVNLAASGGYAIA [A13V] | 1.75 |
| EGCGPPLRRWLRSNLAASGGYAIA [A13S] | 2.58 |
| EGCGPPLRRWLRLNLAASGGYAIA [A13L] | 2.21 |
| EGCGPPLRRWLRMNLAASGGYAIA [A13M] | 1.4 |
| EGCGPPLRRWLRWNLAASGGYAIA [A13W] | 2.03 |
| EGCGPPLRRWLRANLMASGGYAIA [A16M] | 2.98 |
| EGCGPPLRRWLRANLKASGGYAIA [A16K] | 2.31 |
| EGCGPPLRRWLRANLDASGGYAIA [A16D] | 2.12 |
| EGCGPPLRRWLRANLIASGGYAIA [A16I] | 1.96 |
| EGCGPPLRRWLRANLVASGGYAIA [A16V] | 1.65 |
| EGCGPPLRRWLRANLRASGGYAIA [A16R] | 1.68 |
| EGCGPPLRRWLRANLCASGGYAIA [A16C] | 1.78 |
| EGCGPPLRRWLRANLNASGGYAIA [A16N] | 2.5 |
| EGCGPPLRRWLRANLQASGGYAIA [A16Q] | 1.57 |
| EGCGPPLRRWLRANLPASGGYAIA [A16P] | 1.78 |
| EGCGPPLRRWLRANLLASGGYAIA [A16L] | 1.53 |
| EGCGPPLRRWLRANLHASGGYAIA [A16H] | 2.13 |
| EGCGPPLRRWLRANLTASGGYAIA [A16T] | 1.63 |
| EGCGPPLRRWLRANLWASGGYAIA [A16W] | 1.45 |
| EGCGPPLRRWLRANLYASGGYAIA [A16Y] | 1.48 |

| Variant | protein stability index |
| --- | --- |
| EGCGPPLRRWLRANLSASGGYAIA [A16S] | 1.68 |
| EGCGPPLRRWLRANLGASGGYAIA [A16G] | 1.71 |
| EGCGPPLRRWLRANLEASGGYAIA [A16E] | 2.58 |
| EGCGPPLRRWLRANLAPSGGYAIA [A17P] | 1.81 |
| EGCGPPLRRWLRANLAVSGGYAIA [A17V] | 1.4 |
| EGCGPPLRRWLRANLAFSGGYAIA [A17F] | 1.35 |
| EGCGPPLRRWLRANLASSGGYAIA [A17S] | 1.84 |
| EGCGPPLRRWLRANLAKSGGYAIA [A17K] | 1.7 |
| EGCGPPLRRWLRANLAISGGYAIA [A17I] | 2.67 |
| EGCGPPLRRWLRANLAGSGGYAIA [A17G] | 1.59 |
| EGCGPPLRRWLRANLARSGGYAIA [A17R] | 1.44 |
| EGCGPPLRRWLRANLANSGGYAIA [A17N] | 2.96 |
| EGCGPPLRRWLRANLATSGGYAIA [A17T] | 1.4 |
| EGCGPPLRRWLRANLAMSGGYAIA [A17M] | 2.2 |
| EGCGPPLRRWLRANLACSGGYAIA [A17C] | 1.39 |
| EGCGPPLRRWLRANLADSGGYAIA [A17D] | 2.71 |
| EGCGPPLRRWLRANLAESGGYAIA [A17E] | 2.63 |
| EGCGPPLRRWLRANLAHSGGYAIA [A17H] | 2 |
| EGCGPPLRRWLRANLALSGGYAIA [A17L] | 1.63 |
| EGCGPPLRRWLRANLAYSGGYAIA [A17Y] | 1.97 |
| EGCGPPLRRWLRANLAQSGGYAIA [A17Q] | 2.79 |
| EGCGPPLRRWLRANLAWSGGYAIA [A17W] | 2.03 |
